Target: T1, TECPR1 (purified, on GUVs) (human, UniProt Q7Z6L1 1-1165)
T1 construct: TECPR1, human, full-length cDNA of isoform 1, cloned into pCoofy29; TECPR1 could be labeled on native cysteines (Alexa Fluor 488 or CF405M); also called recombinant TECPR1; source: High Five insect cells, purified (Ni-NTA, PreScission, Superdex 200); not shown: His6, N-terminal, cleaved; MBP, N-terminal, cleaved
T1 sequence (looked up): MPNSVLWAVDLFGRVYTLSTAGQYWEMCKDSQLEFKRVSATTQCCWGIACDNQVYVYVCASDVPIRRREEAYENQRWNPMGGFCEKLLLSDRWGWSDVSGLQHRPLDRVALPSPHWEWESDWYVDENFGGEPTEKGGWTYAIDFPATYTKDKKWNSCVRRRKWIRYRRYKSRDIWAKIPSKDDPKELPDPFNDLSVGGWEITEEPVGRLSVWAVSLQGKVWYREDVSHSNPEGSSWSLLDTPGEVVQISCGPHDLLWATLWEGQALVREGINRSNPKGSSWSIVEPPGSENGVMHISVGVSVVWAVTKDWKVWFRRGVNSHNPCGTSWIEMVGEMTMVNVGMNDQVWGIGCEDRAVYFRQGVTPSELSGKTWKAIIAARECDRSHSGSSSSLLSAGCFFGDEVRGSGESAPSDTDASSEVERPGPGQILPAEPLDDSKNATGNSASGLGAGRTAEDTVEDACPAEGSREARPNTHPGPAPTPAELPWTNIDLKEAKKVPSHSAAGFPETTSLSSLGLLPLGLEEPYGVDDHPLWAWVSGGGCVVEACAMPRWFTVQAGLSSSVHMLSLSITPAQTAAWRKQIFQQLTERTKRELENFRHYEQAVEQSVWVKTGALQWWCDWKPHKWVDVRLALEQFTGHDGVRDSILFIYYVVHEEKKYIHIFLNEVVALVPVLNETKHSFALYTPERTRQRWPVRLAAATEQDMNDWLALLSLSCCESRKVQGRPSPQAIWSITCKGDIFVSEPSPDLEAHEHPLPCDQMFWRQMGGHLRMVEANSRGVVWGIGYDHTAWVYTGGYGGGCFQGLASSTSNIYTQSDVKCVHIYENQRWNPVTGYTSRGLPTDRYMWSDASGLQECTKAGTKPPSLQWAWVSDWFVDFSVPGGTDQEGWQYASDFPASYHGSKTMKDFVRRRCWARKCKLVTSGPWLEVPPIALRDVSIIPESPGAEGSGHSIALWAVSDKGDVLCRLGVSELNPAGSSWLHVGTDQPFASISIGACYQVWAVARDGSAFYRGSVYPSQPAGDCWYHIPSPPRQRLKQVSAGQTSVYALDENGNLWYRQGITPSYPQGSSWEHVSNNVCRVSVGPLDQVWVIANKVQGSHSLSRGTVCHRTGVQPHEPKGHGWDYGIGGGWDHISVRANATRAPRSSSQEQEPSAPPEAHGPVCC
Test: recruitment of SUVs to GUVs seen by fluorescence microscopy; reconstitution with purified proteins: Alexa488-LC3C conjugated to SUVs coincubated with GUVs decorated with TECPR1; GUVs without TECPR1 as control
Details: both partners purified

B1: Alexa488-labeled LC3C conjugated to SUVs (natural protein, human, UniProt Q9BXW4 1-126, looked up)
chain: MPPPQKIPSVRPFKQRKSLAIRQEEVAGIRAKFPNKIPVVVERYPRETFLPPLDKTKFLVPQELTMTQFLSIIRSRMVLRATEAFYLLVNNKSLVSMSATMAEIYRDYKDEDGFVYMTYASQETFG
modifications: Alexa Fluor 488 C5 maleimide on the introduced N-terminal cysteine; conjugated to SUVs
  binding result: binds

From publication PMC7293217, “TECPR1 promotes aggrephagy by direct recruitment of LC3C autophagosomes to lysosomes” (Nature Communications, 2020)
